The values below come from patent US20140112930A1 (published 2014).

For one assay, the target named is T1, Monomeric hAng-2FD (human, UniProt O15123 282-496).
T1 construct: also called fibrinogen-like domain of human Ang2; Human Ang-2FD
T1 sequence: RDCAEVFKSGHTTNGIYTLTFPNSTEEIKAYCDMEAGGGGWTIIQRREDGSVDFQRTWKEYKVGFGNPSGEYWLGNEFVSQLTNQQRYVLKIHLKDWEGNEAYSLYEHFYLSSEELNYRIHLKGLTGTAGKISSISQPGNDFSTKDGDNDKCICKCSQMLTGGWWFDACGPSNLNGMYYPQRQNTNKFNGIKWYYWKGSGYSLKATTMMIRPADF
The assay is described as follows: SPR, captured Ab. (SPR reads the build-up and loss of mass on a sensor chip optically.)

The target of assay [1] is T2, wild-type human Ang-2 (hAng-2-WT) (human, UniProt O15123 19-496).
T2 construct: called full-length wild-type; also called Full-length wild-type human Ang-2
T2 sequence: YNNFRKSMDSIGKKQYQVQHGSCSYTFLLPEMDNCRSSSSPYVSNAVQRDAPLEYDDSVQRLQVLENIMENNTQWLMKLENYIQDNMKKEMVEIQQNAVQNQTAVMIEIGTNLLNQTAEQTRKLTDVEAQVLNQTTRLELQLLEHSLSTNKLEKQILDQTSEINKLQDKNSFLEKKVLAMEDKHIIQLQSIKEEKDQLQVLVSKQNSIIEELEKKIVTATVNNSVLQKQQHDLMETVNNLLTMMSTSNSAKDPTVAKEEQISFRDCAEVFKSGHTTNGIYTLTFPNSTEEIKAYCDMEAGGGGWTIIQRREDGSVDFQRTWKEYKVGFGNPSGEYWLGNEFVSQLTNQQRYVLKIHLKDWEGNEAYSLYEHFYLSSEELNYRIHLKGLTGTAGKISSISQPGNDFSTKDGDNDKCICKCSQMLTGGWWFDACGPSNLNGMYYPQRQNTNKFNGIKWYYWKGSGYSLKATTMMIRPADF
Briefly: SPR, captured Ab.

Assay [2] has as its target T3, human bow-Ang-2 tetrameric construct (hBA2) (human).
T3 construct: also called human BA2; hBA2-hIgG1
The assay is described as follows: SPR, captured Ab.

Assay [3] concerns the target T4, Dimeric Mouse Ang-2FD conjugated to human IgG1 (mouse (Mus musculus); human).
T4 construct: also called Mouse Ang-2FD-hFc
Briefly: SPR, captured Ab, RT. On the procedure:
(§1) Antibody was captured on a goat anti-mouse IgG polyclonal antibody surface, a goat anti-human κ polyclonal antibody (Southern Biotech, Birmingham, Ala.) surface or a goat anti-human IgG polyclonal antibody (Jackson Immuno Research Lab, West Grove, Pa.) surface created through direct amine coupling to a BIACORE™ CM5 sensor chip to form a captured antibody surface. […] Antigen-antibody binding and dissociation were monitored in real time at room temperature. Kinetic analysis was performed to calculate KD and half-life of antigen/antibody complex dissociation.

The target in assay [4] is T5, Dimeric Human Ang-2FD conjugated to human IgG1 (human).
T5 construct: also called Human Ang-2FD-hFc; hAng-2FD-hFc
Briefly: SPR, captured Ab, RT. The method, then: as §1

The target in assay [5] is T6, Dimeric Monkey Ang-2FD conjugated to human IgG1 (monkey (Macca fascicularis); human).
T6 construct: also called Monkey Ang-2FD-hFc
The assay is described as follows: SPR, captured Ab, RT. On the procedure: as §1

In another assay the target is T7, Mouse Ang-2FD-hFc (mouse (Mus musculus)).
T7 construct: also called dimeric mouse Ang-2FD
The assay is described as follows: blocking ELISA, 16.67 nM antibody, Ang-2FD-hFc to coated hTie-2-mFc. On the procedure: (§2) The plate was then blocked with PBS (Irvine Scientific, Santa Ana, Calif.) containing 0.5% BSA (Sigma-Aldrich Corp., St. Louis, Mo.) for one hour at room temperature. […] Human, mouse or monkey Ang-2FD protein conjugated to human IgG (Ang-2FD-hFc) were added to final concentrations of 2 nM, 8 nM, or 2 nM respectively and incubated for one hour at room temperature. The antibody/Ang-2FD-Fc mixture was then added to the plate containing hTie-2-mFc and incubated for one hour at room temperature. Detection of Ang-2FD-hFc bound to hTie-2-mFc protein was determined with Horse-Radish Peroxidase (HRP) conjugated to a-human IgG antibody (Jackson Immuno Research Lab, West Grove, Pa.) and developed by standard colorimetric response using tetramethylbenzidine (TMB) substrate (BD Biosciences, San Jose, Calif.). Absorbance was read at OD₄₅₀ for 0.1 sec.
(An ELISA detects its analyte on a solid surface through an enzyme-linked reagent.)

Assay [6] concerns the target T4, Dimeric Mouse Ang-2FD conjugated to …. Briefly: competition ELISA, 16.67 nM Ab, coated hTie-2-mFc. The method, then:
as §2

Assay [7] addresses T5, Dimeric Human Ang-2FD conjugated to …. Briefly: competition ELISA, 16.67 nM Ab, coated hTie-2-mFc. On the procedure: as §2
Assay [8] addresses T6, Dimeric Monkey Ang-2FD conjugated to …. The assay is described as follows: competition ELISA, 16.67 nM Ab, coated hTie-2-mFc. On the procedure:
as §2

B1: H1H749N (antibody, V domains shown)
VH: QVQLVESGGGVVQPGRSLRLSCAASGFTFSSYGMHWVRQAPGKGLEWVAVIWYDEFNKYYADSVKGRFTISRDNSKNTLYLQMNSLRAEDTAVYYCARERESGYSYGFDYWGQGTLVTVSS
VL: EIVMTQSPATLSVSPGERATLSCRAGQSVSSNLAWYQQKPGQAPRLLIYGASTRATGIPARFSGSGSGTEFTLTISSLQSEDFAVYYCQQYNNWWTFGQGTKVEIK
Regarding B1, the dissociation constant (Kd) (commonly the constant that tells how readily two partners part at equilibrium) with Monomeric hAng-2FD is 1.13 nM; in [1] it was 0.0125 nM; in assay [2], 0.0325 nM; in assay [3], 0.177 nM; in assay [4], 0.118 nM; in assay [5], 0.407 nM. In addition, the T1/2 came to 0.558 h in the assay with Monomeric hAng-2FD; 30.6 h in assay [1]; 3.92 h in assay [2]; 1.6 h in [3]; 1.82 h in assay [4]; 2.38 h in [5].

B2: H1H695P (antibody, V domains shown)
VH: QVQLVESGGGVVQPGRSLRLSCAASGFTFSSYGMHWVRQAPGKGLEWVAVMWYDETNKYYADSVKGRFTISRDNSKNTLYLQMNSLRAEDTAVYYCARYSGYEDYYHGMDVWGQGTTVTVS
VL: EIVMTQSPATPSVSPGERATLSCRASQSISSNLAWYQQKPGQAPRLLIYGASTRATGIPARFSGSGSGTEFTLTISSLQSEDFAVYYCQHYNNWITFGQGTRLEIK
In the case of B2, the equilibrium dissociation constant (Kd) with Monomeric hAng-2FD was 1.12 nM; in assay [1], 0.0311 nM; in [2] it was 0.0401 nM; in assay [3], 0.347 nM; in [4], 0.245 nM; in [5] it was 0.44 nM. In addition, the T1/2 in assay [1] turned out to be 29.5 h; in assay [2] it was 4.24 h; in assay [3], 2.07 h; in assay [4] it was 2.45 h; in [5], 1.4 h.

B3: H1H690P (antibody, V domains shown)
VH: EVQLVESGGGLVQPGESLRLSCAASGFTFSSYAMSWVRQGPGKGLEWVSSITGSGDTTYYADSVKGRFTISRDNSKNTLYLHMNSLRAEDTAVYYCAKDFLDYSTYLAFDLWGQGTMVTVSS
VL: EIVLTQSPATLSLSPGERATLSCRASQSVSSYLTWYQQKPGQAPRLLSYDASNRATGIPARFSGSGSGTDFTLTISSLEPEDFAVYYCQQRSNWPLTFGGGTKVEIK
For the molecule B3, the Kd in the assay with Monomeric hAng-2FD stood at 0.594 nM; in assay [1], 0.0124 nM; in [2] it was 0.0179 nM; in assay [3], 0.0913 nM; in [4], 0.079 nM; in assay [5], 0.0556 nM. The T1/2 was found to be 0.419 h with Monomeric hAng-2FD; 26.1 h in [1]; 4.99 h in [2]; 1.75 h in assay [3]; 2.1 h in assay [4]; 3.25 h in assay [5].

B4: H1H693P (antibody, V domains shown)
VH: EVQLVESGGGLVQPGESLRLSCAASGFTFSSYAMSWVRQGPGKGLEWVSSISGSGGTTYYADSVEGRFTISRDNSKNTLYLHMNSLRAEDTAVYYCAKDFLDYSTYLAFDLWGQGTMVTVSS
VL: DIQMTQSPSSVSASVGDRVTITCRASQGISSWLAWYQQKPGKAPKLLIYAASSLQSGVPSRFSGSGSGTDFTLTISSLQPEDFATYYCQQANSFPRTFGQGTKVEIK
As for B4, the Kd with Monomeric hAng-2FD was found to be 44.8 nM; in [1] it was 0.425 nM; in assay [2] it was 0.299 nM; in assay [3], 0.446 nM; in assay [4], 0.5 nM; in [5], 1.17 nM. The T1/2 stood at 0.0102 h with Monomeric hAng-2FD; 1.67 h in assay [1]; 0.478 h in assay [2]; 1.06 h in assay [3]; 0.618 h in [4]; 0.293 h in assay [5].

B5: H1H685P (antibody, human IgG1, V domains shown)
VH: EVQLVESGGGLVQPGGSLRLSCAASGFTFSSYDIHWVRQATGKGLEWVSAIGPAGDTYYPGSVKGRFTISRENAKNSLYLQMNSLRAGDTAVYYCARGLITFGGLIAPFDYWGQGTLVTVSS
VL: EIVLTQSPGTLSLSPGERATLSCRASQSVSSTYLAWYQQKPGQAPRLLIYGASSRATGIPDRFSGSGSGTDFTLTISRLEPEDFAVYYCQHYDNSQTFGQGTKVEIK
notes: Fully human antibody, human IgG1
For the molecule B5, in the assay with Mouse Ang-2FD-hFc, the “Percent Blocking of Ang-2FD Binding to Tie-2” value was 97.1%.

B6: H1H750N (antibody, V domains shown)
VH: QVKLVESGGGVVQPGRSLRVSCAASGFTFSSYGMHWVRQAPGKGLEWLAIIWYDGDNKYYSDSVKGRFTISRDNSKNTLYLQMNSLRAEDTAEYYCVRDASIASRFLDYWGQGTLVTVSS
VL: DIQMTQSPSSLSASIGDRVTITCRATQDINNYLAWFQQKPGKAPKSLIYATSNLQSGVPSKFSGSGSGTDYTLTISSLQPEDFSTYYCQQYHSYPLTFGGGTKVEIK
With B6, the Kd with Monomeric hAng-2FD was determined as 0.787 nM; in [1], 0.0095 nM; in assay [2], 0.0369 nM; in assay [3], 0.218 nM; in [4] it was 0.164 nM; in assay [5] it was 0.199 nM. Also, the T1/2 with Monomeric hAng-2FD amounted to 0.503 h; in [1] it was 74 h; in assay [2], 4.73 h; in assay [3], 2.02 h; in assay [4], 2.12 h; in assay [5], 4.07 h.

B7: H1H696P (antibody, V domains shown)
VH: QVQLVESGGGLVKPGGSLRLSCAASGFTFSDYYMSWIRQAPGKGLEWVSYISYTGRTIYYADSVKGRFTISRDNAKNSLYLQMNSLRAEDTAVYYCARDTDYGDFFDYWGQGTLVTVSS
VL: DIQMTQSPSSLSASVGDRVTITCRASQGISNYLAWFQQKPGKAPKSLIYAASSLQSGVPSKFSGSGSGTDFTLTISSLQPEDFATYYCQQYNSYPLTFGGGTKVEIK
With B7, the dissociation constant Kd in the assay with Monomeric hAng-2FD was 38.4 nM; in assay [1] it was 0.0403 nM; in [2], 0.111 nM; in assay [3], 0.402 nM; in assay [4] it was 0.289 nM; in assay [5] it was 0.354 nM. In addition, the T1/2 with Monomeric hAng-2FD was determined as 0.00333 h; in [1], 10.7 h; in assay [2], 0.858 h; in assay [3] it was 0.627 h; in assay [4], 0.647 h; in assay [5], 0.61 h.

B8: H2M730N (antibody, V domains shown)
VH: EVQLVESGGGLVQPGGSLRLSCAASGFAFRSYWMTWVRQAPGKGLEWVANIQQDGNDKYYVDSVKGRFTISRDNAKNSLYLQMNSLRAEDTAVYYCARDTGIAEAGPFDYWGQGTLVTVSS
VL: DIQMTQSPSTLSASVGDRVSITCRASQTIISWLAWYQQKPGKAPRLLIYKASSLESGVPSRFSGSGSGTEFTLTINSLQPDDFATYYCQQYNRYWTFGQGTKVEIK
Take B8: the Kd came out at 2.06 nM in the assay with Monomeric hAng-2FD, 0.0492 nM in assay [1], 0.21 nM in assay [4] and 0.842 nM in [5]. Moreover, the T1/2 with Monomeric hAng-2FD is 0.407 h; in assay [1], 8.65 h; in [4], 0.783 h; in [5] it was 0.61 h. The “Percent Blocking of Ang-2FD Binding to Tie-2” value in [6] was determined as 55%; in assay [7] it was 98.9%; in assay [8] it was 97.3%.
